Source: paper PMC11574045, “A cofactor-induced repressive type of transcription factor condensation can be induced by synthetic peptides to suppress tumorigenesis” (The EMBO Journal, 2024)

B1: ZNF473 (protein, UniProt Q8WTR7 1-871, looked up)
Zinc finger protein 473: MAEEFVTLKDVGMDFTLGDWEQLGLEQGDTFWDTALDNCQDLFLLDPPRPNLTSHPDGSEDLEPLAGGSPEATSPDVTETKNSPLMEDFFEEGFSQEIIEMLSKDGFWNSNFGEACIEDTWLDSLLGDPESLLRSDIATNGESPTECKSHELKRGLSPVSTVSTGEDSMVHNVSEKTLTPAKSKEYRGEFFSYSDHSQQDSVQEGEKPYQCSECGKSFSGSYRLTQHWITHTREKPTVHQECEQGFDRNASLSVYPKTHTGYKFYVCNEYGTTFSQSTYLWHQKTHTGEKPCKSQDSDHPPSHDTQPGEHQKTHTDSKSYNCNECGKAFTRIFHLTRHQKIHTRKRYECSKCQATFNLRKHLIQHQKTHAAKTTSECQECGKIFRHSSLLIEHQALHAGEEPYKCNERGKSFRHNSTLKIHQRVHSGEKPYKCSECGKAFHRHTHLNEHRRIHTGYRPHKCQECVRSFSRPSHLMRHQAIHTAEKPYSCAECKETFSDNNRLVQHQKMHTVKTPYECQECGERFICGSTLKCHESVHAREKQGFFVSGKILDQNPEQKEKCFKCNKCEKTFSCSKYLTQHERIHTRGVKPFECDQCGKAFGQSTRLIHHQRIHSRVRLYKWGEQGKAISSASLIKLQSFHTKEHPFKCNECGKTFSHSAHLSKHQLIHAGENPFKCSKCDRVFTQRNYLVQHERTHARKKPLVCNECGKTFRQSSCLSKHQRIHSGEKPYVCDYCGKAFGLSAELVRHQRIHTGEKPYVCQECGKAFTQSSCLSIHRRVHTGEKPYRCGECGKAFAQKANLTQHQRIHTGEKPYSCNVCGKAFVLSAHLNQHLRVHTQETLYQCQRCQKAFRCHSSLSRHQRVHNKQQYCL
B2: CCNC (protein, UniProt P24863 1-283, looked up)
Cyclin-C: MAGNFWQSSHYLQWILDKQDLLKERQKDLKFLSEEEYWKLQIFFTNVIQALGEHLKLRQQVIATATVYFKRFYARYSLKSIDPVLMAPTCVFLASKVEEFGVVSNTRLIAAATSVLKTRFSYAFPKEFPYRMNHILECEFYLLELMDCCLIVYHPYRPLLQYVQDMGQEDMLLPLAWRIVNDTYRTDLCLLYPPFMIALACLHVACVVQQKDARQWFAELSVDMEKILEIIRVILKLYEQWKNFDERKEMATILSKMPKPKPPPNSEGEQGPNGSQNSSYSQS
B3: ZNF250 (protein, UniProt P15622 1-560, looked up)
Zinc finger protein 250: MAAARLLPVPAGPQPLSFQAKLTFEDVAVLLSQDEWDRLCPAQRGLYRNVMMETYGNVVSLGLPGSKPDIISQLERGEDPWVLDRKGAKKSQGLWSDYSDNLKYDHTTACTQQDSLSCPWECETKGESQNTDLSPKPLISEQTVILGKTPLGRIDQENNETKQSFCLSPNSVDHREVQVLSQSMPLTPHQAVPSGERPYMCVECGKCFGRSSHLLQHQRIHTGEKPYVCSVCGKAFSQSSVLSKHRRIHTGEKPYECNECGKAFRVSSDLAQHHKIHTGEKPHECLECRKAFTQLSHLIQHQRIHTGERPYVCPLCGKAFNHSTVLRSHQRVHTGEKPHRCNECGKTFSVKRTLLQHQRIHTGEKPYTCSECGKAFSDRSVLIQHHNVHTGEKPYECSECGKTFSHRSTLMNHERIHTEEKPYACYECGKAFVQHSHLIQHQRVHTGEKPYVCGECGHAFSARRSLIQHERIHTGEKPFQCTECGKAFSLKATLIVHLRTHTGEKPYECNSCGKAFSQYSVLIQHQRIHTGEKPYECGECGRAFNQHGHLIQHQKVHRKL
B4: ZNF483 (protein, UniProt Q8TF39 1-744, looked up)
Zinc finger protein 483: MQAVVPLNKMTAISPEPQTLASTEQNEVPRVVTSGEQEAILRGNAADAESFRQRFRWFCYSEVAGPRKALSQLWELCNQWLRPDIHTKEQILELLVFEQFLTILPGEIRIWVKSQHPESSEEVVTLIEDLTQMLEEKDPVSQDSTVSQEENSKEDKMVTVCPNTESCESITLKDVAVNFSRGEWKKLEPFQKELYKEVLLENLRNLEFLDFPVSKLELISQLKWVELPWLLEEVSKSSRLDESALDKIIERCLRDDDHGLMEESQQYCGSSEEDHGNQGNSKGRVAQNKTLGSGSRGKKFDPDKSPFGHNFKETSDLIKHLRVYLRKKSRRYNESKKPFSFHSDLVLNRKEKTAGEKSRKSNDGGKVLSHSSALTEHQKRQKIHLGDRSQKCSKCGIIFIRRSTLSRRKTPMCEKCRKDSCQEAALNKDEGNESGEKTHKCSKCGKAFGYSASLTKHRRIHTGEKPYMCNECGKAFSDSSSLTPHHRTHSGEKPFKCDDCGKGFTLSAHLIKHQRIHTGEKPYKCKDCGRPFSDSSSLIQHQRIHTGEKPYTCSNCGKSFSHSSSLSKHQRIHTGEKPYKCGECGKAFRQNSCLTRHQRIHTGEKPYLCNDCGMTFSHFTSVIYHQRLHSGEKPYKCNQCEKAFPTHSLLSRHQRIHTGVKPYKCKECGKSFSQSSSLNEHHRIHTGEKPYECNYCGATFSRSSILVEHLKIHTGRREYECNECEKTFKSNSGLIRHRGFHSAE
B5: ZNF41 (protein, UniProt P51814 1-821, looked up)
Zinc finger protein 41: MAANGDSPPWSPALAAEGRGSSCEVRRERTPEARIHSVKRYPDLSPGPKGRSSADHAALNSIVSLQASVSFEDVTVDFSKEEWQHLDPAQRRLYWDVTLENYSHLLSVGYQIPKSEAAFKLEQGEGPWMLEGEAPHQSCSGEAIGKMQQQGIPGGIFFHCERFDQPIGEDSLCSILEELWQDNDQLEQRQENQNNLLSHVKVLIKERGYEHKNIEKIIHVTTKLVPSIKRLHNCDTILKHTLNSHNHNRNSATKNLGKIFGNGNNFPHSPSSTKNENAKTGANSCEHDHYEKHLSHKQAPTHHQKIHPEEKLYVCTECVMGFTQKSHLFEHQRIHAGEKSRECDKSNKVFPQKPQVDVHPSVYTGEKPYLCTQCGKVFTLKSNLITHQKIHTGQKPYKCSECGKAFFQRSDLFRHLRIHTGEKPYECSECGKGFSQNSDLSIHQKTHTGEKHYECNECGKAFTRKSALRMHQRIHTGEKPYVCADCGKAFIQKSHFNTHQRIHTGEKPYECSDCGKSFTKKSQLHVHQRIHTGEKPYICTECGKVFTHRTNLTTHQKTHTGEKPYMCAECGKAFTDQSNLIKHQKTHTGEKPYKCNGCGKAFIWKSRLKIHQKSHIGERHYECKDCGKAFIQKSTLSVHQRIHTGEKPYVCPECGKAFIQKSHFIAHHRIHTGEKPYECSDCGKCFTKKSQLRVHQKIHTGEKPNICAECGKAFTDRSNLITHQKIHTREKPYECGDCGKTFTWKSRLNIHQKSHTGERHYECSKCGKAFIQKATLSMHQIIHTGKKPYACTECQKAFTDRSNLIKHQKMHSGEKRYKASD
B6: CBX2 (protein, UniProt Q14781 1-532, looked up)
Chromobox protein homolog 2: MEELSSVGEQVFAAECILSKRLRKGKLEYLVKWRGWSSKHNSWEPEENILDPRLLLAFQKKEHEKEVQNRKRGKRPRGRPRKLTAMSSCSRRSKLKEPDAPSKSKSSSSSSSSTSSSSSSDEEDDSDLDAKRGPRGRETHPVPQKKAQILVAKPELKDPIRKKRGRKPLPPEQKATRRPVSLAKVLKTARKDLGAPASKLPPPLSAPVAGLAALKAHAKEACGGPSAMATPENLASLMKGMASSPGRGGISWQSSIVHYMNRMTQSQAQAASRLALKAQATNKCGLGLDLKVRTQKGELGMSPPGSKIPKAPSGGAVEQKVGNTGGPPHTHGASRVPAGCPGPQPAPTQELSLQVLDLQSVKNGMPGVGLLARHATATKGVPATNPAPGKGTGSGLIGASGATMPTDTSKSEKLASRAVAPPTPASKRDCVKGSATPSGQESRTAPGEARKAATLPEMSAGEESSSSDSDPDSASPPSTGQNPSVSVQTSQDWKPTRSLIEHVFVTDVTANLITVTVKESPTSVGFFNLRHY

These molecules were tested on HEK293FT cells transfected with TF library (assay: Screening of TF condensates based on fluorescent puncta). Conditions: Figure 1B numerical data; TF library screen, one value per transcriptional factor.
Type: cell-based
In short: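 HEK293FT, PEI transfection of TF library, 60 h; ±glucose 12 h; 4% PFA fix, 0.05% Triton X-100 permeabilization, 5% BSA block; anti-Flag/anti-GAL4 overnight at 4 °C, Alexa 488 secondary 1 h; high-content imaging, 50 fields/well.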
In the case of B1, the “Z score of condensed fraction” value is reported as -0.9289. B2 was tested, and the “Z score of condensed fraction” value was -0.5132. B3 was tested, and the “Z score of condensed fraction” value was -1.178. For B4, the “Z score of condensed fraction” value was 2.279. For B5, the “Z score of condensed fraction” value was -0.7537. In the case of B6, the “Z score of condensed fraction” value is reported as 1.201.
